± gives the uncertainty stated by the source.

A short description of the data set: amyloid nucleation score (Sup35N fusion, yeast selection) (log enrichment); library NNK2; higher = more nucleation; inactive = no reads after selection. In a few lines: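 The nucleation score is the DiMSum log enrichment of output over input reads, centred on the mode score of non-aggregating sequences. Only sequences with 100 or more input reads were scored, using Illumina sequencing of input and output plasmid inserts. Psi-negative yeast expressing Sup35N fused to peptides of 20 random codons were induced 24 hours with 100 μM copper sulfate and grown 7 days at 30°C on medium lacking adenine and uracil.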

For the substance WCCPPHGRQP, the amyloid nucleation score is 0.876 ± 0.43.
The substance FVNFMGWTMSNINNVYFGHK came in with an amyloid nucleation score of 7.303 ± 0.055.
With QSKFDTFGSFACTYRYFTAN, the amyloid nucleation score worked out at 0.698 ± 0.8.
As to VLTALVYVEITF, the amyloid nucleation score amounted to 5.41 ± 0.066.
On to NYSNFTIKYLNLKRTLLDL, for which the amyloid nucleation score was -1.74 ± 0.64.
As for VVEFNVLHDDLEVQDKT, the amyloid nucleation score is -1.16 ± 0.56.
With FAFIYVIT the entry was “inactive”; with NVWVSDFVGERAGDLHLSLY, 0.025 ± 1.1.
DLLQREIDRSIVRLWIMEKG displayed an amyloid nucleation score of 0.252 ± 0.49.
Regarding RKLIYSICKYVFALSVTIVG, the amyloid nucleation score is -1.3 ± 0.32.
For the substance WFENNDESMGQEWNKHCTSV, the amyloid nucleation score was 0.718 ± 0.24.
MMGECNFCSIGRH had an amyloid nucleation score of 4.83 ± 0.078.
The same measure for GLNYIARMSQN: 0.392 ± 0.3; for FCISFYTNIPSDS: -0.836 ± 0.55.
In turn, LYLCGWVGRSMGFDARPCHF came in with an amyloid nucleation score of 3.38 ± 0.098.
In the case of FCCSKLAPRTGYYSF, the amyloid nucleation score amounted to 7.12 ± 0.066.
VNLWCRYDWGVPGDSWGRDG yielded an amyloid nucleation score of 2.92 ± 0.078.
With FTFTRQSAGAHRYDIFVPRT the figure was 0.17 ± 0.41.
With CFMFWLCITNGIRPQCPLAS the figure was 0.016 ± 0.65; with NKAHINW, 0.476 ± 0.6; with IWFRIQVCEIPSLIQTIVRR, -0.064 ± 0.32.
Substance KFLHKQVFNFHVSGMNPMAS displayed an amyloid nucleation score of 5.75 ± 0.069.
FLFTQGRLGGGYIVEYLCQL returned an amyloid nucleation score of 3.3 ± 0.15.
The substance DGTGYGTSKLTWWRDFLKRC showed an amyloid nucleation score of -0.192 ± 0.63.
Consider IYTLP, for which the amyloid nucleation score result was “inactive”.
Substance TFYCTSCFLLMSVMSFHRLL registered an amyloid nucleation score of 1.89 ± 0.13.
In turn, ISLFDYGQGMFHRCFMAVKG gave an amyloid nucleation score of -0.131 ± 0.6.
With TAKDTPCAVRIIFEFLDGLV, the amyloid nucleation score is 7.279 ± 0.056.
The substance DACYGITLDCCETLARSMSC gave an amyloid nucleation score of -0.382 ± 0.76.
For NFSDWIYVFSEVPMLVRCRW, the amyloid nucleation score was determined as 0.261 ± 0.42.
For the substance NALADRRFTISPRIFAYLLL, the amyloid nucleation score worked out at 0.312 ± 0.65.
In turn, ILCFGFITTNSIRLQSPMVV had an amyloid nucleation score of 0.753 ± 0.51.
The substance RNFMVDRSGWQSKYVTHSLE had an amyloid nucleation score of -0.324 ± 0.6.
As to QSLFFVI, the amyloid nucleation score is -0.395 ± 0.48.
On to VLNRLERASSVREQGIIRGR, for which the amyloid nucleation score was found to be 0.252 ± 0.29.
GSSGLCIRSSLIYFVCQTVW returned an amyloid nucleation score of 6.903 ± 0.054.
The substance KEHGMESRPSWLTFSIYLVG registered an amyloid nucleation score of 0.428 ± 0.56.
With LCMCLRNMLSPAMVVTSNPP, the amyloid nucleation score was determined as 0.737 ± 0.2.
The substance RIEVLTLCGGEAGSLVMGIV yielded an amyloid nucleation score of 1.16 ± 0.48.
As to DNDRHNAVALRSSVIVLLGK, the amyloid nucleation score entry is “inactive”.
On to LSNLMRISMIFEYAAPLFRF, for which the amyloid nucleation score entry was “inactive”.
YQIAWI: the amyloid nucleation score was -0.719 ± 0.46.
DSLTCCIS showed an amyloid nucleation score of 3.37 ± 0.093.
Consider MFRVARFSKAYDCTHFVING, for which the amyloid nucleation score turned out to be 0.546 ± 0.8.
As for CSSDSIYSSWWFSLYNITGE, the amyloid nucleation score entry is “inactive”.
Substance TGLKIG displayed an amyloid nucleation score of 0.038 ± 0.29.
The same measure for NRYVLCNLVVISVSGISLCT: 7.249 ± 0.063; for VEINNNE: -0.065 ± 0.56.
PHSRNRFLMFA came in with an amyloid nucleation score of -0.488 ± 1.
With KMDTRSRLKQWKRFFIHIPK the figure was -0.92 ± 0.49; with CILSYVQEMTMEPYLSKSLS, -0.296 ± 0.76.
With FISNYLMPV the figure was 2.1 ± 0.12.
As to TLYSVSLGKEFYYG, the amyloid nucleation score amounted to 0.192 ± 0.46.
The same measure for MMHEYAAGGLSSGLFWDMSG: -0.623 ± 0.63; for WWFLKLDGRLPKLWAFLTMG: -0.22 ± 0.23; for TASMGVVVSDENWE: 0.633 ± 0.14.
In turn, RRIFYHEYHMRDSIH had an amyloid nucleation score of 1.7 ± 0.1.
YYVERCNGTMVRNFLGATLV came in with an amyloid nucleation score of -0.968 ± 0.5.
For the substance LMRLDLGT, the amyloid nucleation score is -0.518 ± 0.32.
Regarding AFEFIPSKPRW, the amyloid nucleation score came out at 0.667 ± 0.66.
With DFYMYSVVDLS the figure was -0.767 ± 0.31; with THMSEDGFVL, 0.072 ± 0.34; with SVLQTTFVLVVGKTYNTSTD, 2.94 ± 0.072.
The substance SLGIQRARNAMSNTPFALGS returned an amyloid nucleation score of 0.596 ± 0.36.
The same measure for DDVYNSGYKELIRSQ: 0.348 ± 0.25; for IWPMEWNCTMDYRSPWMRHR: 2.06 ± 0.07.
With YYSWFSVYSIIILHNQQFRL the entry was “inactive”; with FGNVMMTDAV, -0.631 ± 0.46; with FTRYLTFNFRLETYYRGSHG, 1.44 ± 0.18.
The same measure for SWLRMSTDVIGLRWFDGNA: 4.84 ± 0.065.
Regarding DLRIREMDLGNWSWASR, the amyloid nucleation score came to 0.653 ± 0.23.
In the case of CCCASR, the amyloid nucleation score result is “inactive”.
YPQGVGSDLTS had an amyloid nucleation score of 0.953 ± 0.19.
CLVFTRVWYCAIYRTSFKET: the amyloid nucleation score was -0.474 ± 0.38.
Substance QNLASIDLDYFFSEYYPLLA came in with an amyloid nucleation score of -1.37 ± 0.42.
Substance RHPGPAL registered an amyloid nucleation score of 0.857 ± 0.25.
As to NMVHNDRSRKVKLSWCATFK, the amyloid nucleation score came to 7.609 ± 0.058.
Regarding NRSIVYGYFQLYENFNWPFS, the amyloid nucleation score was 0.913 ± 0.19.
As to ALWTSC, the amyloid nucleation score is 2.35 ± 0.078.
The same measure for LSMELNVYVERWWFSKLDRG: -1.26 ± 0.49; for RLLAGIFLEEKFYPRPSDIL: 3.69 ± 0.13; for KGRGCRFLMLYYRVYMFRGS: 0.471 ± 0.5.
For VCTWYRVAIDRRINIS, the amyloid nucleation score stood at 1.96 ± 0.066.
YIAILFYMC displayed an amyloid nucleation score of 7.2 ± 0.044.
On to ELVVPQWGQRRVHDLVCVEP, for which the amyloid nucleation score is 1.75 ± 0.29.
With RRFVLARVPNNKCPQTIRLD the figure was 0.733 ± 0.48; with GKLLRHFGLMYCLFLIAAYG, 0.108 ± 0.42.
Consider STVMWLRASLRIQNYTRGDT, for which the amyloid nucleation score amounted to 4.54 ± 0.052.
As for SRSSTCGSRGLTGNRGGGIG, the amyloid nucleation score came out at 0.299 ± 0.45.
As for VNRDRAQLWVACITCRCNFR, the amyloid nucleation score stood at 8.986 ± 0.049.
Substance AYSEPAISQRFFLSGLKSII registered an amyloid nucleation score of -0.885 ± 0.34.
For LLRRNFNYVYIIYLILSSPV, the amyloid nucleation score result was “inactive”.
For FGKVRESCCLLAY, the amyloid nucleation score is 0.489 ± 0.3.
As for SLPPLMWGAMMRRRRRGSST, the amyloid nucleation score was 5.717 ± 0.056.
As for WCEGHKSW, the amyloid nucleation score is -0.817 ± 1.
On to SLRYLHFGVDHLS, for which the amyloid nucleation score worked out at 3.94 ± 0.055.
As for HVVTCMRILFPSDKGSCFVK, the amyloid nucleation score is -0.142 ± 0.37.
KECRYID: the amyloid nucleation score result was “inactive”.
The substance ICLFDY displayed an amyloid nucleation score of -2.02 ± 0.62.
The substance YEGFM registered an amyloid nucleation score of -0.297 ± 0.56.
With SLSRGLC the figure was 0.404 ± 0.45; with KSDQLGCRLVDRGNCFSNRL, “inactive”.
MGSFKC registered an amyloid nucleation score of -1.32 ± 0.63.
With SYDSPPSEHLVPVAQSISVP the figure was 1.17 ± 0.44; with LPIPIKETHLSCWAVDVGFD, -0.052 ± 0.2; with GFNLKVVVITTFDAFYYHAT, “inactive”.
The substance LYPYAQFCVSVRRLHRLVSR had an amyloid nucleation score of 0.306 ± 0.28.
On to CIRTDFGA, for which the amyloid nucleation score is -0.086 ± 0.35.
On to DKIVI, for which the amyloid nucleation score is -0.978 ± 0.54.
For the substance ELTTIG, the amyloid nucleation score was found to be 1.62 ± 0.28.
With HLGSDRGDAWVANVKPERWD, the amyloid nucleation score worked out at 1.03 ± 0.31.
In the case of RECNRNFQKSGSSEHETGLG, the amyloid nucleation score is -0.844 ± 0.54.
In turn, TNAACSPLTCGHQMAVSPNY yielded an amyloid nucleation score of 0.358 ± 0.32.
With IKTIADIYCISQSRIGSKLT, the amyloid nucleation score result was “inactive”.
As for RNRAENV, the amyloid nucleation score was -0.36 ± 0.76.
RLKVVLRYLASGHWKLVA had an amyloid nucleation score of 1.31 ± 0.41.
Consider NTITIMHSDEYVMRVSYICQ, for which the amyloid nucleation score stood at 1.87 ± 0.2.
With RSKLFVISNGRRMHVVLSST, the amyloid nucleation score was 0.605 ± 0.51.
Take TRYSILVDRRNRIFVVADPD: the amyloid nucleation score stood at 0.615 ± 0.32.
Consider RVESDTDVIVQIMQWRGVFL, for which the amyloid nucleation score was found to be 0.334 ± 0.28.
LQMSGTSR returned an amyloid nucleation score of 0.265 ± 1.1.
GGWYDPGCSGGDIITDEVDW: the amyloid nucleation score is -0.159 ± 0.55.
As to TTDGNQAISVKLMTYLTRPL, the amyloid nucleation score was -0.187 ± 0.41.
With LHQGKPYITLALYRFLHGSR the figure was -1.15 ± 1.1.
RFRGGSKSGLYFIVCISDVW returned an amyloid nucleation score of -0.758 ± 0.44.
Regarding LRRASINCKMLGGDVGQVMW, the amyloid nucleation score is 0.404 ± 0.66.
Substance YNKGNACISGYYGCSLA returned an amyloid nucleation score of 7.41 ± 0.083.
The substance WLTEVY showed an amyloid nucleation score of -0.587 ± 0.79.
In turn, IIRPVFILNLPYLFRCVG registered an amyloid nucleation score of 0.465 ± 0.28.
In the case of LNVVARMFYLSLSSSGNWSG, the amyloid nucleation score is -0.849 ± 0.64.
GEGVSIMYRWHL gave an amyloid nucleation score of 1.21 ± 0.1.
Regarding SYAYVSKMYVKYCQLKFI, the amyloid nucleation score was -0.921 ± 0.78.
The substance AVSHCMDDSFWGAIHKRLLY came in with an amyloid nucleation score of 3.63 ± 0.15.
CIGYLMEIHVFSNDAKVYYL registered an amyloid nucleation score of 6.24 ± 0.038.
With RPVSSFVSASGSRSGLQSLK the figure was 0.085 ± 0.8.
With RRWVG the figure was 0.015 ± 0.45.
As to GCWSPKLSIGRRSRSALYRG, the amyloid nucleation score was determined as 1.2 ± 0.66.
For the substance LSYNVLLGRIEIPWVSFSRM, the amyloid nucleation score was found to be 3.94 ± 0.068.
With LFMKRER the figure was -0.179 ± 0.76; with SSWPSMST, -0.458 ± 0.28; with MLALLCVNNWEGCYWYVGSV, 6.827 ± 0.063.
